From FireProtDB (doi:10.1021/bi960855h)

Conditions: Bos taurus, Thermal, DSC, NaCl 200 mM, reversible: yes, whole UniProt chain shown
[1] = pH 4, Acetic acid-Sodium acetate 10 mM
[2] = pH 5, Acetic acid-Sodium acetate 10 mM

B1: Ribonuclease pancreatic wild type, P61823 (protein)
chain: MALKSLVLLSLLVLVLLLVRVQPSLGKETAAAKFERQHMDSSTSAASSSNYCNQMMKSRNLTKDRCKPVNTFVHESLADVQAVCSQKNVACKNGQTNCYQSYSTMSITDCRETGSSKYPNCAYKTTQANKHIIVACEGNPYVPVHFDASV
[1]
  Tm: 44.6 °C
  heat capacity change of unfolding: 1.24 kcal/mol/K
  unfolding enthalpy (calorimetric): 94.5 kcal/mol
  unfolding enthalpy (van 't Hoff): 98.1 kcal/mol
[2]
  Tm: 45.5 °C
  heat capacity change of unfolding: 1.2 kcal/mol/K
  unfolding enthalpy (calorimetric): 95.7 kcal/mol
  unfolding enthalpy (van 't Hoff): 96.9 kcal/mol
pH 6, MES 10 mM
  Tm: 46.8 °C
  heat capacity change of unfolding: 1.17 kcal/mol/K
  unfolding enthalpy (calorimetric): 98.1 kcal/mol
  unfolding enthalpy (van 't Hoff): 100 kcal/mol
pH 6.5, MES 10 mM
  Tm: 47.2 °C
  heat capacity change of unfolding: 1.22 kcal/mol/K
  unfolding enthalpy (calorimetric): 99.3 kcal/mol
  unfolding enthalpy (van 't Hoff): 100 kcal/mol
pH 7, MOPS 10 mM
  Tm: 50.1 °C
  heat capacity change of unfolding: 1.22 kcal/mol/K
  unfolding enthalpy (calorimetric): 103 kcal/mol
  unfolding enthalpy (van 't Hoff): 102 kcal/mol
pH 7.5, MOPS 10 mM
  Tm: 50.6 °C
  heat capacity change of unfolding: 1.2 kcal/mol/K
  unfolding enthalpy (calorimetric): 104 kcal/mol
  unfolding enthalpy (van 't Hoff): 105 kcal/mol
